Holding throughout (conditions): both partners purified
Test [1] has as its target T1, His6-Hs.USP18 (16-372) (human, UniProt Q9UMW8 16-372).
T1 construct: ubiquitin-specific protease 18 (USP18), human, residues 16-372; Expressed as MBP-tev-His6-USP18 from pDest-795 (Addgene 161881 is the vector); the TEV site was cut, His6 stays; also called human USP18; recombinant human USP18; source: insect cells (baculovirus), purified (IMAC, TEV digest, second IMAC); not shown: MBP, N-terminal, cleaved; His6, N-terminal, kept
T1 sequence (looked up): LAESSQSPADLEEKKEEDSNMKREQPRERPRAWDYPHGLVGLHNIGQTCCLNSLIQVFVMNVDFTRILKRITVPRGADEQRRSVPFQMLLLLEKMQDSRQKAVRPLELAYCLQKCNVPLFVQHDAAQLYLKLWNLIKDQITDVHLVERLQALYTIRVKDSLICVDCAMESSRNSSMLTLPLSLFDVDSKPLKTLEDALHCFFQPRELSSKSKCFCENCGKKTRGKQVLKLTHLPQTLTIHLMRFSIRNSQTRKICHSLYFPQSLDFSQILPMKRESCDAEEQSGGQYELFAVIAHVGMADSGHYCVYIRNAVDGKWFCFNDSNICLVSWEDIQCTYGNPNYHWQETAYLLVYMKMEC
The experiment in a line: covalent labelling by an activity-based probe (SDS-PAGE); recombinant USP18 (2 μM), USP5 (1 μM) or USP16 (0.45 μM) with Ac-Ubl-PA probes (10 μM), 3 h, room temperature; higher band on SDS-PAGE, SYPRO Ruby staining.

For test [2], the target named is T2, His6-Mm.USP18 (46-368) (mouse, UniProt Q9WTV6 46-368).
T2 construct: ubiquitin-specific protease 18 (USP18), mouse, residues 46-368; Expressed as MBP-tev-His6-USP18 from pDest-795 (Addgene 161881 is the vector); the TEV site ENLYFQG was cut, His6 stays and serves for capture on the NTA chip; also called mouse USP18; recombinant mouse USP18; source: insect cells (baculovirus), purified (IMAC, TEV digest, second IMAC); not shown: MBP, N-terminal, cleaved; His6, …
T2 sequence (looked up): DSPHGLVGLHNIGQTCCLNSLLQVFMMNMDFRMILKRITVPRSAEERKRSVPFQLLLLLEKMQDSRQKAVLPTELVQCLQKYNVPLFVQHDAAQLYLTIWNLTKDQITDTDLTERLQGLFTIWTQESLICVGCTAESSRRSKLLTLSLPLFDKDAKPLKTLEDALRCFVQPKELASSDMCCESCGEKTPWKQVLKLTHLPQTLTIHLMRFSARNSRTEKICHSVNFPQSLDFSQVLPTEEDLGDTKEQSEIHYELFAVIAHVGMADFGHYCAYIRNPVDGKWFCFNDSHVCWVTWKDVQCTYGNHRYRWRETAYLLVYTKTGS
The description is as above.

For test [3], the target named is T1, His6-Hs.USP18 (16-372). The experiment in a line: SPR; BIAcore 3000; mouse and human USP18 immobilised via the N-terminal His6 tag on an NTA chip; 25 °C; 50 mM HEPES, 150 mM NaCl, 0.05 mM EDTA, 0.5 mM DTT, 0.01% P20, pH 7.5; 20 μL/min; Langmuir 1:1 model with drift.
Test [4] addresses T2, His6-Mm.USP18 (46-368). The description is as above.

B1: Ac-mISG15CTD[WT]-PA (domain or fragment, mouse)
chain: LSILVRNERGHSNIYEVFLTQTVDTLKKKVSQREQVHEDQFWLSFEGRPMEDKELLGEYGLKPQSTVIKHLRLRG
modifications: N-terminal acetyl; C-terminal propargylamine (PA) warhead replacing Gly155
notes: C-terminal domain of mouse ISG15, Leu80~Gly154; also called Ac-mISG15CTD-PA; WT probe; source: synthetic (solid-phase peptide synthesis), RP-HPLC purified
With B1, the binding result in test [1] and in test [2] was “binds” throughout.

B2: Ac-mISG15CTD-OH (wild type) (domain or fragment, mouse)
chain: LSILVRNERGHSNIYEVFLTQTVDTLKKKVSQREQVHEDQFWLSFEGRPMEDKELLGEYGLKPQSTVIKHLRLRG
modifications: N-terminal acetyl
notes: C-terminal domain of mouse ISG15, Leu80~Gly154; also called Ac-mISG15CTD[WT]-OH; source: synthetic (solid-phase peptide synthesis), RP-HPLC purified
B2: the binding result in test [3] and in test [4] was “binds” each time.

The record behind these values is publication PMC11754618, “Chemical tools to define and manipulate interferon-inducible Ubl protease USP18” (Nature Communications, 2025).
